Experimental findings from patent publication US20020169291A1 are described below.

In assay [1] the target is mature human IL-18 K89A mutant (human) (UniProt Q14116). Briefly: cell-based or functional assay.
Assay [2] has as its target mature human IL-18 WT, generated by factor Xa cleavage of proIL-18 (ICE/Xa) (human) (UniProt Q14116). Briefly: cell-based or functional assay.

Sequence of mature human IL-18 K89A mutant (human) (Q14116 37-193 K89A): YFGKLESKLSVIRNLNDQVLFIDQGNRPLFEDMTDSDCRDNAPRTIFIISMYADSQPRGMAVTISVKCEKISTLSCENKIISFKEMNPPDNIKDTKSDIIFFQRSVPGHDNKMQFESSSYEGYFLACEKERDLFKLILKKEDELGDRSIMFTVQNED
Sequence of mature human IL-18 WT, generated by factor Xa cleavage of proIL-18 (ICE/Xa) (human) (Q14116 37-193 limits assumed): as the sequence (Q14116 37-193 K89A) above, with A53K counted along it

On to “"a" isoform of CHO cell produced recombinant his-6-tagged human IL-18BP (from UniProt O95998 31-194)”, for which, in assay [1], the IL-18BP concentration giving a statistically significant reduction of IFN-γ co-induction in NKO cells was determined as 120 ng/mL and the IL-18BP concentration that neutralized IFN-γ induction in PBMCs turned out to be 120 ng/mL. In assay [2], this substance displayed a 50% inhibitory concentration of IL-18BP for co-induction of IFN-γ from NKO cells of 15 ng/mL and an amount of IL-18BP needed to neutralize IFN-γ induction in PBMCs of 3.7 ng/mL.
